Test results as given in IntAct's records for PubMed 23686307.

molecular target: tf65_human RELA (UniProt Q04206)

effect of a mutation on the interaction | Substance
decreasing interaction | Bromodomain-containing protein 4 (Homo sapiens) (from UniProt O60885) Y139A;N140A
disrupting interaction | Bromodomain-containing protein 4 (Homo sapiens) (from UniProt O60885) Y139A;N140A;Y432A;N433A
decreasing interaction | Bromodomain-containing protein 4 (Homo sapiens) (from UniProt O60885) Y432A;N433A
